From publication PMC10545799

Experiments:
[1] = target: dsc-Agg5A (donor strand complemented major pilin subunit Agg5A of AAF/V) (enteroaggregative E. coli); test: SAXS; engineered subunit samples (monomer fractions of the gel filtration) in solution, 10 °C, dilutions 1:1 and 1:2; molecular weight and aggregation number from Guinier analysis; self-association
[2] = target: dsc-Agg5AB (chimeric donor strand complemented construct of minor pilin subunit Agg3B and major pilin subunit Agg5A) (enteroaggregative E. coli); test: as above

For “dsc-Agg5A (donor strand complemented major pilin subunit Agg5A of AAF/V) (domain or fragment)”, the stoichiometry N [1] was 2.
Substance “dsc-Agg5AB (chimeric donor strand complemented construct of minor pilin subunit Agg3B and major pilin subunit Agg5A)” has a stoichiometry N [2] of 6.8.
